The nature of the series: soluble on expression in E. coli; label from the status in PepcDB or PDB records.
For the sequence “MSLKPLSSPLQQYWQTVVERLPEPLAEESLSAQAKSVLTFSDFVQDSVIAHPEWLTELESQPPQADEWQHYAAWLQEALCNVSDEAGLMRELRLFRRRIMVRIAWAQTLALVTEESILQQLSYLAETLIVAARDWLYDACCREWGTPCNAQGEAQPLLILGMGKLGGGELNFSSDIDLIFAWPEHGCTQGGRRELDNAQFFTRMGQRLIKVLDQPTQDGFVYRVDMRLRPFGESGPLVLSFAALEDYYQEQGRDWERYAMVKARIMGDSEGVYANELRAMLRPFVFRRYIDFSVIQSLRNMKGMIAREVRRRGLTDNIKLGAGGIREIEFIVQVFQLIRGGREPSLQSRSLLPTLSAIAELHLLSENDAEQLRVAYLFLRRLENLLQSINDEQTQTLPSDELNRARLAWAMDFADWPQLTGALTAHMTNVRRVFNELIGDDESETQEESLSEQWRELWQDALQEDDTTPVLAHLSEDDRKQVLTLIADFRKELDKRTIGPRGRQVLDHLMPHLLSDVCAREDAAVLSRITALLVGIVTRTTYLELLSEFPAALKHLISLCAASPMIASQLARYPLLLDELLDPNTLYQPTATDAYRDELRQYLLRVPEDDEEQQLEALRQFKQAPVLRIAAADIAGTLPVMKVSDHLTWLAEAMIDAVVQQAWVQMVARYGKPNHLNEREGRGFAVVGYGKLGGWELGYSSDLDLIFLHDCPMDAMTDGEREIDGRQFYLRLAQRIMHLFSTRTSSGILYEVDARLRPSGAAGMLVTSAEAFADYQKNEAWTWEHQALVRARVVYGDPQLTAHFDAVRREIMTLPREGKTLQTEVREMREKMRAHLGNKHRDRFDIKADEGGITDIEFITQYLVLRYAHEKPKLTRWSDNVRILELLAQNDIMEEQEAMALTRAYTTLRDELHHLALQELPGHVSEDCFTAERELVRASWQKWLVEEEGHHHHHH”, the “soluble on expression in E. coli” value was “soluble”.

With “MMHFEVHGRTDAEAPTILLSSGLGGSSAYWLPQIEALSDHFRIVTYDHRGTGRTGGEVPTEGGISAMADDVLEIVSALNLEKFHFMGHALGGLIGLDIALRQPRLIDRLVLINAWSKADPHSGRCFDVRIELLEKSGVDAFVKAQPLFLYPAAWMSEHQERLARDDAHGVAHFQGKTNVLRRIAALRAFDIDARLGEIGNPVLVVATKDDLLVPYTRSLRLAEGLPQSELCLLDFGAHAVNITEPDLFNTRLLQFLLPADQT”, the “soluble on expression in E. coli” value was “not soluble”.

With “AIAKLPISTISPIHYMKSVVSSRETRNESNKSRRTFASTEWNKIIRETLYLETVYIPVDATSHSPDIIFKLQSPVEPKVLTVGVACKGRWKSEGIGWSDIIDEAKKFLDPVYDQVLSSAMDYHHCMLIIVSTKLSLNVSNELGNQSRCYSSGMFIGGDSFKVPDNCELVILCERDVQMLIDKEILNGLERAFCVSHNPTFWDFGLDLLDRIRNSFLSWQ”, the “soluble on expression in E. coli” value is reported as “soluble”.

Regarding “SSLIKKIEENERKDTLNTLQNMFPDMDPSLIEDVCIAAASRIGPCVDALLSLSE”, the “soluble on expression in E. coli” value is given as “soluble”.

As for “MLSIKHLTKIYSGNKKAVDDISLDIQSGEFIAFIGTSGSGKTTALRMINRMIEATEGQIEIDGKDVRSMNPVELRRNIGYVIQQIGLMPHMTIKENIVLVPKLLKWTKEEKDKRAKELIKLVDLPESFLERYPAELSGGQQQRIGVVRALAAEQDIILMDEPFGALDPITRDTLQDLVKTLQRKLGKTFIFVTHDMDEAIKLADKICIMSEGKVVQFDTPDNILRHPANDFVRDFIGQNRLIQDRPNDKTVEGVMIKPITIQAEATLNDAVHIMRQKRVDTIFVVDSNNHLLGFLDIEDINQGIRGHKSLRDTMQQHIYTVQIDSKLQDSVRTILKRNVRNVPVVDDQQRLVGLITRANVVDIVYDTIWGDSEDTVQTEHVGEDTASSKVHEQHTTNVKVRDIGDDKS”, the “soluble on expression in E. coli” value is recorded as “not soluble”.

As to “GMEAKLSSIEIPVGQDELSGTLLTPTGMPGVLFVHGWGGSQHHSLVRAREAVGLGCICMTFDLRGHEGYASMRQSVTRAQNLDDIKAAYDQLASLPYVDAHSIAVVGLSYGGYLSALLTRERPVEWLALRSPALYKDAHWDQPKVSLNADPDLMDYRRRALAPGDNLALAACAQYKGDVLLVEAENDVIVPHPVMRNYADAFTNARSLTSRVIAGADHALSVKEHQQEYTRALIDWLTEMVVGRRIALAKEVVAARKQLLKEQQGDAVSLPGQGSREFRGDIRAVEKTSA”, the “soluble on expression in E. coli” value is on record as “soluble”.

As to “MSGSDRGDRLYDVLGVTRDATVQEIKTAYRKLALKHHPDKYVDQDSKEVNEIKFKEITAAYEILSDPEKKSHYDLYGDDNGAASSGG”, the “soluble on expression in E. coli” value was “not soluble”.

On to “MRPESMTDGVPGSDSPAAAAAAASVTTSLHDLQVLVERGTLSGPEKQQADHLVTSLKRELVLRRVGDHLAERTFHELCVRLAVMERDWAAMERHIQQLMPLYELDRQAGIQSPHRDLLVGLNLMRLLAQNRLAEYHMELELLPTTEPQQNPYVLFPFQVEQALTEGSYQKILHIEAGAEWLPFIELLRETTIQEMVTSWAEAYAHVTLEELASMAALPVEQVPALLARVLDCTQYVVQNETVHFIASDHIREAPSQYLLAKEAVSRTMEYIRGLERIV”, for which the “soluble on expression in E. coli” value is on record as “soluble”.

For the sequence “SAATMKKAAAEDVNVTFEDQQKINKFARNTSRITELKEEIEVKKKQLQNLEDACDDIMLADDDCLMIPYQIGDVFISHSQEETQEMLEEAKKNLQEEIDALESRVESIQRVLADLKVQLYAKFGSNINLEADES”, the “soluble on expression in E. coli” value was “soluble”.

For “MGSDKIHHHHHHMKEIVHLQSFLAVARTGSLTLAAEELHVTPSAVSHRLRQLEQRLGAKLLRRTPHGMALTGEGQRFKDRISDPIEAIEMALRPETGQEGPLTVSVMPWFASSWLMPRLKRFQLRCPDARIRIETSSQLSDLAHGHVTAALRFGRGDWPDIEVEPLFDEWVIPVASPDVVAQMGSNAQDPARWPRLPDPDDLWSSWFGDEVMGEAMRSSIELHDTSSLTEAAVNGMGVVLGRYTHVAPWLERGDLVTLASQWIRMPKRHYLVRSRHRPMHSCFPHFRRWLHDEVKKYQTSASSEFY”, the “soluble on expression in E. coli” value was “not soluble”.

Take “MGGMHAHVILAAGQGTRMRSRLPKVLHPLLGKPMLLYALEAALALKPERLVVVVGHGGEKVVEALEGYPVEVAWQKEQLGTAHALLQAEGLLRDFPGPFLVTQGDTPLLSPRTLEALLRRVREGAGMALLTAELPDPTGYGRILREGEEVLGNVEEKDAPPEVRAIREVNAGAYAFDGFLFQALKEVRNENAAREYYLPDLIAIYRAHGRRVLAVRGVAEEALGVNTREELARVEGVLLRRLRAEWMGKGVRMILPETIYLEPSVELAPDVTLWPGAVLKGKTRIGEGCEVGPYAVLEDTVLEPGAKVLAHTVAQGAHLHPGASAGPFARLRPGAVLMEEVHVGNFVEVKNSLLHKGVKAGHLAYLGDAEVGEGTNIGAGVITANYDGKRKHKTEIGKKAFIGSNSVLVAPVRVGDRALVGAGSVITQDVPEGALAVARERQKNLEGYALRKLGEG”: the “soluble on expression in E. coli” value was “soluble”.

Take “MKERILQEIKTRVNRKSWELWFSSFDVKSIEGNKVVFSVGNLFIKEWLEKKYYSVLSKAVKVVLGNDATFEITYEAFEPHSSYSEPLVKKRAVLLTPLNPDYTFENFVVGPGNSFAYHAALEVAKHPGRYNPLFIYGGVGLGKTHLLQSIGNYVVQNEPDLRVMYITSEKFLNDLVDSMKEGKLNEFREKYRKKVDILLIDDVQFLIGKTGVQTELFHTFNELHDSGKQIVICSDREPQKLSEFQDRLVSRFQMGLVAKLEPPDEETRKSIARKMLEIEHGELPEEVLNFVAENVDDNLRRLRGAIIKLLVYKETTGKEVDLKEAILLLKDFIKPNRVKAMDPIDELIEIVAKVTGVPREEILSNSRNVKALTARRIGMYVAKNYLKSSLRTIAEKFNRSHPVVVDSVKKVKDSLLKGNKQLKALIDEVIGEISRRALSGLEHHHHHH”: the “soluble on expression in E. coli” value is “soluble”.

As to “MDVFNRNAERYDAWYDRNRELYEAELELLPKPISPSVEVGVGTGRFAVIGIDLGVDVSLQMLRIAKKRGVECVAGDAAHLPFKDKSFRSAYLIFTLCFLDEPIKALMEIKRVLEGTLVACVVPANSGLGREYSGKDSSFYRKARFLTEDEVLSMLRETGFKVKEIRRRKLKYDENDFVCFIAES”, the “soluble on expression in E. coli” value is recorded as “not soluble”.

In the case of “GMISDSISKRRSIRKYKNQSISHETIEKIIEAGINAPSSKNRQPWRFVVITEKEKESMLKAMSKGIQNEINDNGLLPGSRQHIAGANYTVEIMKQAPVTIFILNILGKSPLEKLSPEERFYEMANMQSIGAAIQNMSLTAVELGLGSLWICDVYFAYRELCEWLNTDSQLVAAISLGYPDEEPSRRPRLQLSDVTEWR”, the “soluble on expression in E. coli” value is given as “soluble”.

As to “AIAKNFNDEEHNSQLTDEVLPEPEDARVIANILKAVGVESFDTRVVAQLVEFVYKYIGEVLELSKTFAQYAEREDIRQDDVKLAISSLLSKSFTQPPSRDVLLQLCRERNAVPLPVVDTYVGIQLPPKEFQLTTRNYQLKRKTTTESVASQELSEATGNISIGESSLQPNEEESNTMNT”, the “soluble on expression in E. coli” value was “soluble”.

For the sequence “MDPTQISHLALDIGGTLIKLVYFSANGDYSEESRNGCSVVKGRLCFAKFETRKIDDCLEFIRFNILHHSEVTIQVYSNRMAKATGGGAFKFADLFKEKLGILFDKEDEMCSLVGGVNFLLKTVPREAFTYLDGQKKFVEIDHNDLYPYLLVNIGSGVSMIKVDGDGKYERISGTSLGGGTFLGLGKLLTKCKSFDELLELSHHGNNRVIDMLVGDIYGGTDYSKIGLSSTAIASSFGKAISDGKELEDYQPEDVARSLLRMISNNIGQIAYLNALRFGLKRIFFGGFFIRGLEYTMDTISVAVHFWSRGEAKAMFLRHEGFLGALGAFTSYNDQSHNDLKPHHHTVQRAILNCSGHNFRHIPVTSNLNESETIECSINLV”, the “soluble on expression in E. coli” value is recorded as “soluble”.

For the sequence “VSAHVATLHPEPPFALCGPRGTLIARGVRTRYCDVRAAQAALRSGTAPILLGALPFDVSRPAALMVPDGVLRARKLPDWPTGPLPKVRVAAALPPPADYLTRIGRARDLLAAFDGPLHKVVLARAVQLTADAPLDARVLLRRLVVADPTAYGYLVDLTSAGNDDTGAALVGASPELLVARSGNRVMCKPFAGSAPRAADPKLDAANAAALASSAKNRHEHQLVVDTMRVALEPLCEDLTIPAQPQLNRTAAVWHLCTAITGRLRNISTTAIDLALALHPTPAVGGVPTKAATELIAELEGDRGFYAGAVGWCDGRGDGHWVVSIRCAQLSADRRAALAHAGGGIVAESDPDDELEETTTKFATILTALGVEQ”, the “soluble on expression in E. coli” value was “not soluble”.

Take “MGSDKIHHHHHHMEDLNSLYYFTQVVEHGGFAPAGRALDMPKSKLSRRIADLEDRLGVRLLNRTSRHCSLTEIGQAYYNRCLAMRVEAEGAAEIIERNRSEPRGLVRISCPTTLLNSWVGPMLTRYMLKYPQVELFIESTNRRVDLLHEGFDIALRVRFPPLENTDMVMKVLSNSTQCLVGQPQYLAQLPKGFDPQLLGTLPSVHWGSAQREYQWELFQGEDNSRSIVIPHTPRMVTDDLFALRHFVVAGVGIAHLPRVAVREDLAAGRLVELIPDWHPRCGIVHAIFPSRRGLLPSVRALIDHLAEEFAISDMA”: the “soluble on expression in E. coli” value is “not soluble”.

Regarding “MGSDKIHHHHHHMDYLTTNKIAWDARTRVHLTSDFYDVEGFLSGKISLTEIELNELAVAGKSLLHLQCHFGLDTLSWARMGAKVTGVDLSEVAIAEACKLAQQTQLSAEFICSDVYSVVGKVEPQDIVFTSYGAIVWLPDLTLWAQTIAACLKPGGQFYMAEFHPAQQLFDGYSYFNRGEPDIEQEGTYTENASDDQQTLMCWSHSLSEVINALLQAGLELVFFHEFAFSPYNCFEGLEAQADGRYVLIHQGQQVPLVYSISARKPV”, the “soluble on expression in E. coli” value is “not soluble”.

Take “MAHHHHHHMNDIYARRLAQATMFHQLMRCHGTLWAATQVTKEQMDYNFIREEFMRVNGRRAMPLLLGAAANENLHQLHLSHLSEHCAWGESARALAVQRQTPLSQRVAALGRMAETIHQVKTASTVQNLFNEQISCMEGISSFEEEPLIEGE”: the “soluble on expression in E. coli” value is “not soluble”.

The values above are taken from the DeepSol protein solubility set.
